According to patent US20080207498A1, “Methods for Treating Alzheimer's Disease” (priority 2005, published 2008):

How the values were obtained:
[1] = biological target: Purified human C1q (Quidel Corp.) (human) (UniProt P02745); test: reverse ELISA: PAP without competitor on C1q-coated plate
Highly purified FcγIII = test: reverse ELISA: PAP without peptide on FcγIII-coated plate
Highly purified FcγIIa = test: reverse ELISA: PAP without peptide on FcγIIa-coated plate
Highly purified FcγIIb = test: reverse ELISA: PAP without peptide on FcγIIb-coated plate
[2] = biological target: Human wt tau protein (441 residues; Sigma-Aldrich) (human) (UniProt P10636); test: reverse ELISA: PAP without peptide on plate coated with human wt tau
Human wt tau protein (441 residues; Sigma-Aldrich) (human), sequence (P10636 other isoform, or with tags, fused parts or gaps limits assumed): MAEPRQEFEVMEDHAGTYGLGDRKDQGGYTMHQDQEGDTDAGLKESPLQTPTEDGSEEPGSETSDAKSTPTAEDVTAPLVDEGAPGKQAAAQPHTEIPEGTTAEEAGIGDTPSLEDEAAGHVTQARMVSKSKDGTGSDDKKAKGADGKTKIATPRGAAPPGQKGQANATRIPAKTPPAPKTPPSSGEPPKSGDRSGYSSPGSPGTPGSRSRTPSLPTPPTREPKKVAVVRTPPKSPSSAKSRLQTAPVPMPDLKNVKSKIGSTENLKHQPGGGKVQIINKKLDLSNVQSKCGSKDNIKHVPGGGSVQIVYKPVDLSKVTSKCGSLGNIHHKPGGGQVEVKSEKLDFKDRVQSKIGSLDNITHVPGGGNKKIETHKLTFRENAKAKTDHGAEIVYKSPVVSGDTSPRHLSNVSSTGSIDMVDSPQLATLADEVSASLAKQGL

[3] = biological target: Human wt β amyloid peptide 1-40 (amyloid precursor protein (APP) fragment 1-40; Sigma-Aldrich) (human); test: reverse ELISA: PAP without peptide on plate coated with human wt β amyloid peptide 1-40

Preformed immune complex of peroxidase and rabbit anti-peroxidase IgG (PAP complex), sequence (P00433 31-338, one chain of several): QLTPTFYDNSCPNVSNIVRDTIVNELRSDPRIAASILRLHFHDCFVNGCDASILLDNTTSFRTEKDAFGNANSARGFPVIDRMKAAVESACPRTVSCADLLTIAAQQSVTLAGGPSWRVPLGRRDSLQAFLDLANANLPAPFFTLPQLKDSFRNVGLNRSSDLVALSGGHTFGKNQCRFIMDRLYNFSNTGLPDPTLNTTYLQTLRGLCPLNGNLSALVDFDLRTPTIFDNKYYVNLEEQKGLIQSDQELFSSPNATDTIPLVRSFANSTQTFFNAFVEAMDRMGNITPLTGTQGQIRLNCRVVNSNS
Purified human C1q (Quidel Corp.) (human), sequence (P02745 23-245 limits assumed, chain 1 of 3): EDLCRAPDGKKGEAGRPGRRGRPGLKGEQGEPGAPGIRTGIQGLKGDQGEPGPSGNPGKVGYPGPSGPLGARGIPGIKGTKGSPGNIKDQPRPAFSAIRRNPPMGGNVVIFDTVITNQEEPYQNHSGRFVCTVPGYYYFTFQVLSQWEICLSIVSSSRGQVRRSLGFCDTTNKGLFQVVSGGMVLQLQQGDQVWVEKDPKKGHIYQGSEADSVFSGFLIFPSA
Purified human C1q (Quidel Corp.) (human), sequence (P02746 28-253 limits assumed, chain 2 of 3, further chain): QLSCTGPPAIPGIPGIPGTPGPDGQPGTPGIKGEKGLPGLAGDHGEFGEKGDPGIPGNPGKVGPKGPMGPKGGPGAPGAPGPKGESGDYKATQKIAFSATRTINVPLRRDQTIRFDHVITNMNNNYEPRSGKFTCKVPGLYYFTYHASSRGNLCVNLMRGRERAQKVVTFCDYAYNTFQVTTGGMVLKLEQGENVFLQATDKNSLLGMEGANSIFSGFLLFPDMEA
Purified human C1q (Quidel Corp.) (human), sequence (P02747 29-245 limits assumed, chain 3 of 3, further chain): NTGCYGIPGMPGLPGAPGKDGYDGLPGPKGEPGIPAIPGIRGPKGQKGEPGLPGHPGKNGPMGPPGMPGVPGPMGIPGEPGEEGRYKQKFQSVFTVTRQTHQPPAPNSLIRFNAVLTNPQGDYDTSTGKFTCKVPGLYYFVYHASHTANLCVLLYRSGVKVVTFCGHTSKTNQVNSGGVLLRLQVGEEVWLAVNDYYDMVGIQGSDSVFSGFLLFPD

OD 405 nm [1]: 2.35 OD | OD 405 nm (Highly purified FcγIII): 1.59 OD | OD 405 nm (Highly purified FcγIIa): 1.6 OD | OD 405 nm (Highly purified FcγIIb): 1.39 OD | OD 405 nm [2]: 0.695 OD | OD 405 nm [3]: 3.28 OD
Substance: Preformed immune complex of peroxidase and rabbit anti-peroxidase IgG (PAP complex) (from UniProt P00433 31-338)
